Experimental data published in publication PMC2532732.

Legend:
Experiment in all cases: EMSA
[1] = biological target: T1, p63 DBD (UniProt Q9H3D4 154-365)
T1 sequence: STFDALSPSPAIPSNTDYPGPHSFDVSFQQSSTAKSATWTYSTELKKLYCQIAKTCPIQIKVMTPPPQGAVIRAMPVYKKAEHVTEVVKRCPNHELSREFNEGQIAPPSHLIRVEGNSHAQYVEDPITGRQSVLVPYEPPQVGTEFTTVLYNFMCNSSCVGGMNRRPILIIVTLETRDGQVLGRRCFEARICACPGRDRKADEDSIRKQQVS

[2] = biological target: T2, p73 DBD (UniProt O15350 104-333)
T2 sequence: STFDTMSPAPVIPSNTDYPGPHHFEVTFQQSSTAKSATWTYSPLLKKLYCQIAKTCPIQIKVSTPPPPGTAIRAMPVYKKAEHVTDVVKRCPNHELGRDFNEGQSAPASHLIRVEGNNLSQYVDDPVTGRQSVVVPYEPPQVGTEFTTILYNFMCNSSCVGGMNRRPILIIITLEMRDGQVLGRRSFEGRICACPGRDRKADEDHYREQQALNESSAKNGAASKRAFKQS

[3] = biological target: p53 DBD (UniProt P04637 94-312)

Measured: binding result

Chain of p53 DBD (P04637 94-312): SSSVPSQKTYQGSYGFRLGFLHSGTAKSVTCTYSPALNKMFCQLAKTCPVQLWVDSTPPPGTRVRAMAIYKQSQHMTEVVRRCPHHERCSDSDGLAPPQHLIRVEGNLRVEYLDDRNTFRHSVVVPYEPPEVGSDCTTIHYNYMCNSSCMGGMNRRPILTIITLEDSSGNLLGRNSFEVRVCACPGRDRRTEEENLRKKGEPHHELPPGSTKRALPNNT

B1: Bax promoter 30-mer (dsDNA)
DNA 1: GGGCTCACAAGTTAGAGACAAGCCTGGGCG
DNA 2: CGCCCAGGCTTGTCTCTAACTTGTGAGCCC
binds: [1] | [2] | [3]

B2: PUMA promoter 30-mer (dsDNA)
DNA 1: CGCGCCTGCAAGTCCTGACTTGTCCGCGGC
DNA 2: GCCGCGGACAAGTCAGGACTTGCAGGCGCG
binds: [1] | [2] | [3]
